Data reported in IntAct's records for PubMed 16938849.

B1: Mitogen-activated protein kinase kinase kinase kinase 4 (Mus musculus), P97820 (parent)
chain: MANDSPAKSLVDIDLSSLRDPAGIFELVEVVGNGTYGQVYKGRHVKTVTAAIKVMDVTEDEEEEITLEINMLKKYSHHRNIATYYGAFIKKSPPGHDDQLWLVMEFCGAGSITDLVKNTKGNTLKEDWIAYISREILRGLAHLHIHHVIHRDIKGQNVLLTENAEVKLVDFGVSAQLDRTVGRRNTFIGTPYWMAPEVIACDENPDATYDYRSDLWSCGITAIEMAEGGPPLCDMHPMRALFLIPRNPPPRLKSKKWSKKFFSFIEGCLVKNYMQRPSTEQLLKHPFIRDQPNERQVRIQLKDHIDRTRKKRGEKDETEYEYSGSEEEEEEVPEQEGEPSSIVNVPGESTLRRDFLRLQQENKERSEALRRQQLLQEQQLREQEEYKRQLLAERQKRIEQQKEQRRRLEEQQRREREARRQQEREQRRREQEEKRRLEELERRRKEEEERRRAEEEKRRVEREQEYIRRQLEEEQRHLEILQQQLLQEQAMLLHDHRRPHAQQQPPPPQQQDRSKPSFHAPEPKPHYDPADRAREVQWSHLASLKNNVSPVSRSHSFSDPSPKFAHHHLRSQDPCPPSRSEGLSQSSDSKSEVPEPTQKAWSRSDSDEVPPRVPVRTTSRSPVLSRRDSPLQGGGQQNSQAGQRNSTSSIEPRLLWERVEKLVPRPGSGSSSGSSNSGSQPGSHPGSQSGSGERFRVRSSSKSEGSPSPRQESAAKKPDDKKEVFRSLKPAGEVDLTALAKELRAVEDVRPPHKVTDYSSSSEESGTTDEEEEDVEQEGADDSTSGPEDTRAASSPNLSNGETESVKTMIVHDDVESEPAMTPSKEGTLIVRQTQSASSTLQKHKSSSSFTPFIDPRLLQISPSSGTTVTSVVGFSCDGLRPEAIRQDPTRKGSVVNVNPTNTRPQSDTPEIRKYKKRFNSEILCAALWGVNLLVGTESGLMLLDRSGQGKVYPLISRRRFQQMDVLEGLNVLVTISGKKDKLRVYYLSWLRNKILHNDPEVEKKQGWTTVGDLEGCVHYKVVKYERIKFLVIALKSSVEVYAWAPKPYHKFMAFKSFGELLHKPLLVDLTVEEGQRLKVIYGSCAGFHAVDVDSGSVYDIYLPTHIQCSIKPHAIIILPNTDGMELLVCYEDEGVYVNTYGRITKDVVLQWGEMPTSVAYIRSNQTMGWGEKAIEIRSVETGHLDGVFMHKRAQRLKFLCGRNDKVFFSSVRSGGSSQVYFMTLGRTSLLSW

Variants of: B1
Conditions: with Ezr

| effect of a mutation on the interaction | Variant |
| --- | --- |
| increasing interaction strength | D152N |
